Numbering of substitutions follows the chain as printed. Like-named read-outs stand apart in the source and are kept apart here.

These results are taken from article PMC9098913, “In vitro reconstitution of Escherichia coli divisome activation” (Nature Communications, 2022).

The target of one experiment is T1, FtsA R286W (1-405)-6xHis (E. coli, UniProt P0ABH0 1-405, R286W, Cy3 or Cy5 at the N-terminus in the labelled form (sortagging as for native FtsA)).
T1 construct: FtsA, E. coli, residues 1-405 with R286W; the C-terminal amphipathic helix replaced by a 6xHistidine tag; plasmid pNB5; Attached to membranes through Tris-NTA lipids by its His tag; also called FtsA R286W-His6; R286W-His6; source: E. coli BL21, purified (as native FtsA); not shown: TwinStrep-SUMO, N-terminal, cleaved; 5xGlycine tag, N-terminal, kept; His6, C-terminal, kept
T1 sequence (looked up): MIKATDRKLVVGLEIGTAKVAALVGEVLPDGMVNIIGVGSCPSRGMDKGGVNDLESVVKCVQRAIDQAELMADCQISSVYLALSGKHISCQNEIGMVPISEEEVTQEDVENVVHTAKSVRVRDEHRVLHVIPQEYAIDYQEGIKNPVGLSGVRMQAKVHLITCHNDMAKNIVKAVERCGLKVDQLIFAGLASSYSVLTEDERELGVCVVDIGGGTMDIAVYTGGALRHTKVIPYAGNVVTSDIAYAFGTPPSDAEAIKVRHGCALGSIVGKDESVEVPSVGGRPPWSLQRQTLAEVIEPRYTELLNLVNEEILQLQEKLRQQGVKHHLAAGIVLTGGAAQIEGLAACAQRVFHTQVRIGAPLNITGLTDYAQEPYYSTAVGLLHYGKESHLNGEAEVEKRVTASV
Nature of the experiment: dual-colour TIRF microscopy on supported lipid bilayers; Cy5-labelled His-tagged FtsA (0.5-1 µM, washed) attached to bilayers with varied Tris-NTA lipid density; 1.25 µM Alexa488-FtsZ added. To be noted: both partners purified.

Another experiment concerns the target T2, FtsA WT (1-405)-6xHis (E. coli, UniProt P0ABH0 1-405, Cy3 or Cy5 at the N-terminus in the labelled form (sortagging as for native FtsA)).
T2 construct: FtsA, E. coli, residues 1-405; plasmid pNB4; Attached to membranes through Tris-NTA lipids by its His tag; also called FtsA-His6; FtsA WT-His6; source: E. coli BL21, purified (as native FtsA); not shown: TwinStrep-SUMO, N-terminal, cleaved; 5xGlycine tag, N-terminal, kept; His6, C-terminal, kept
T2 sequence (looked up): T1 sequence (looked up) with W286R
The experiment is described as above. The settings on record: both partners purified.

The target in the next experiment is T3, FtsA R286W (E. coli, UniProt P0ABH0 1-420, R286W, Cy3 or Cy5 at the N-terminus in the labelled form (labelled CLEPTGG peptide conjugated to the 5xGly tag by sortagging); unlabelled protein also used).
T3 construct: also called Cy5-FtsA R286W; hyperactive mutant; source: E. coli BL21, purified (as the wild type: Strep-Tactin, SUMO tag cleaved with Ulp1, SEC); not shown: TwinStrep-SUMO, N-terminal, cleaved; 5xGlycine tag, N-terminal, kept
T3 sequence (looked up): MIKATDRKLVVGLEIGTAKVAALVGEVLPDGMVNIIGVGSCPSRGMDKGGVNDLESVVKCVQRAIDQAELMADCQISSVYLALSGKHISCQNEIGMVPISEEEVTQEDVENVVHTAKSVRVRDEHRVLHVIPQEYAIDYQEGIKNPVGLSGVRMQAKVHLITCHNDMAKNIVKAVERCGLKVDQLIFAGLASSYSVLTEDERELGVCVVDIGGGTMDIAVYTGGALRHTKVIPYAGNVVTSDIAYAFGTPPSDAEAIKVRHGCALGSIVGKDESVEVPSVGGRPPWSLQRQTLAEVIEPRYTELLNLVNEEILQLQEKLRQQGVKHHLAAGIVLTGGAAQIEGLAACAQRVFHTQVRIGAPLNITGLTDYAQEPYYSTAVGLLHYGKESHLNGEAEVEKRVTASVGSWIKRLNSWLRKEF
Nature of the experiment: dual-colour TIRF microscopy on supported lipid bilayers; Cy5-FtsA WT or R286W (0.1-0.8 µM) and Alexa488-FtsZ (1.25 µM) on DOPC:DOPG bilayers; reaction buffer with 4 mM ATP, 4 mM GTP. To be noted: both partners purified.

A further experiment has as its target T4, FtsA WT (E. coli, UniProt P0ABH0 1-420, Cy3 or Cy5 at the N-terminus in the labelled form (CLEPTGG peptide labelled with sulfo-Cyanine 3- or 5-maleimide, conjugated to the 5xGly tag by sortagging; degree of labelling 65-70%); unlabelled …).
T4 construct: FtsA, E. coli, cloned into vector pMAR19; called full-length in the results; also called wild-type FtsA; Cy5-FtsA WT; source: E. coli BL21, purified (Strep-Tactin, SUMO tag cleaved with Ulp1, SEC); not shown: TwinStrep-SUMO, N-terminal, cleaved; 5xGlycine tag, N-terminal, kept
T4 sequence (looked up): T3 sequence (looked up) with W286R
The experiment is described as above. The settings on record: both partners purified.

A further experiment relates to FtsA. To be noted: Fig. S2f, intensity after FtsNcyto addition. How it is done:
Subsequently, the chamber was washed 6x with reaction buffer, to remove bulk peptide. To visualize colocalization with either FtsZ or FtsA, either a mix of FtsA and Alexa488-FtsZ or Cy3-FtsA and FtsZ was added. […] The time-lapse videos were recorded for 10 min after the addition, with one frame per 2 s.
Time-lapse videos were first intensity-corrected and contrast-enhanced to avoid bleaching effects and simplify subsequent analysis. To remove contributions of X–Y drift, the videos were processed with the Linear Stack Alignment with SIFT plugin. Proper alignment was checked with the 3TP align plugin (J. A. Parker; Beth Israel Deaconess Medical Center, Boston). Subsequently, regions of interest (ROIs) in the center of the stacks were chosen for colocalization analysis. The Pearson’s correlation coefficient (PCC) was quantified with the Image CorrelationJ 1o plugin. To extract information about the relative ratio of FtsZ/FtsA molecules (slope of linear regression), we also used the Image CorrelationJ 1o plugin. As an output, the plugin provides a scatterplot of FtsZ vs FtsA intensities, to which we fitted a linear slope y=k⋅x+d , where k is the slope and d the offset. The slope was used as an estimate for the ratio of FtsA molecules below FtsZ filaments.

Another experiment deals with FtsZ. The settings on record: with FtsNcyto-His and His-tagged FtsA.

B1: FtsZ (natural protein, E. coli, UniProt P0A9A6 1-383, looked up)
chain: MFEPMELTNDAVIKVIGVGGGGGNAVEHMVRERIEGVEFFAVNTDAQALRKTAVGQTIQIGSGITKGLGAGANPEVGRNAADEDRDALRAALEGADMVFIAAGMGGGTGTGAAPVVAEVAKDLGILTVAVVTKPFNFEGKKRMAFAEQGITELSKHVDSLITIPNDKLLKVLGRGISLLDAFGAANDVLKGAVQGIAELITRPGLMNVDFADVRTVMSEMGYAMMGSGVASGEDRAEEAAEMAISSPLLEDIDLSGARGVLVNITAGFDLRLDEFETVGNTIRAFASDNATVVIGTSLDPDMNDELRVTVVATGIGMDKRPEITLVTNKQVQQPVMDRYQQHGMAPLTQEQKPVAKVVNDNAPQTAKEPDYLDIPAFLRKQAD
modifications: Alexa Fluor 488 C5 maleimide on the cysteine of the added N-terminal residues AEGCGEL in the labelled form; unlabelled FtsZ also used
notes: FtsZ, E. coli, cloned into a pTB146-derived vector; Present as GTP-dependent treadmilling filaments in the assays; also called Alexa488-FtsZ; FtsZ filaments; source: E. coli BL21, purified (Ni-NTA, His6-SUMO cleaved with Ulp1, polymerisation with CaCl2 and GTP); not shown: His6-SUMO, N-terminal, cleaved; seven residues AEGCGEL for maleimide coupling, N-terminal, kept
For the molecule B1, the binding result in the experiment with FtsA R286W (1-405)-6xHis, with FtsA WT (1-405)-6xHis, with FtsA R286W and with FtsA WT was “binds” each time.

B2: FtsZ: E. coli tubulin-like FtsZ forming treadmilling filaments; labelled with Alexa Fluor 488 (protein)
chain: B1 chain
modifications: Alexa Fluor 488 C5 maleimide on the cysteine of the added N-terminal residues AEGCGEL in the labelled form; unlabelled FtsZ also used; left off: His6-SUMO, N-terminal, cleaved | seven residues AEGCGEL
As for B2, the “Mean Intensity Fold Change” value in the experiment on FtsA (0.10 µM) is 1.36; with FtsA (0.20 µM) it was 1.60; with FtsA (0.40 µM), 1.56. The “mean recovery time of FtsZ” value with FtsZ is reported as “around 9.5 s”.
